# Measurements as given in patent US20070071675A1 (AbbVie / Abbott, published 2007).
# T1: recombinant human IL-1α (human, UniProt P01583 113-271)
# T1 sequence (looked up): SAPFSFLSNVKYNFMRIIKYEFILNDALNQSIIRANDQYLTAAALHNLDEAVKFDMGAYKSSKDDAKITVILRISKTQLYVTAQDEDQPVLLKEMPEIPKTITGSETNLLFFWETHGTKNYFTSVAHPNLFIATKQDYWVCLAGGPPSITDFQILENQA
# T2: human IL-12 (human, UniProt P29459 23-219; P29460 23-328)
# T2 construct: also called hIL-12
# T2 sequence (looked up) 1: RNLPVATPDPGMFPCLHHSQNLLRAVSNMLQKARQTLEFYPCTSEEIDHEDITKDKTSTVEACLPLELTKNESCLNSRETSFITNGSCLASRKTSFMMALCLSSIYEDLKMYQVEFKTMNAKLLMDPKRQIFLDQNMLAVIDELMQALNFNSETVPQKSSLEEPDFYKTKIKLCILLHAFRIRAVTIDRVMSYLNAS
# T2 sequence (looked up) 2: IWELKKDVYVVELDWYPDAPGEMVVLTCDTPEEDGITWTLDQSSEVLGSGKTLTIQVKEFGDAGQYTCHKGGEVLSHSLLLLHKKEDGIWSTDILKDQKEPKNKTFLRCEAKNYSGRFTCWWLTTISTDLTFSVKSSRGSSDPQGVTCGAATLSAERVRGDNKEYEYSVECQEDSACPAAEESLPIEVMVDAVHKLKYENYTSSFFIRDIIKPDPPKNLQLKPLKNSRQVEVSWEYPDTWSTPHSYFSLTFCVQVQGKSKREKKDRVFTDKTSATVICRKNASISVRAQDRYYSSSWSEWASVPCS
# Columns and labels:
# [1] = target: recombinant human IL-1β (human, UniProt P01584 117-269); assay: cell-based or functional assay
# [2] = target: T1, recombinant human IL-1α; assay: cell-based or functional assay
# [3] = target: T2, human IL-12; assay: SPR (Biacore)
# [4] = target: T3, human IL-18 (human, UniProt Q14116 37-193); assay: SPR (Biacore)
# T3 construct: also called hIL-18
# [5] = target: T2, human IL-12; assay: cell-based or functional assay
# [6] = target: T3, human IL-18; assay: cell-based or functional assay
# [7] = target: T1, recombinant human IL-1α; assay: cell-based or functional assay; remark: listed apart in the source
# [8] = target: T1, recombinant human IL-1α; assay: SPR (Biacore); end of the range tied to DVD1-Ig by the Kd values of Table 13
# Experimental: The kinetics of DVD-Ig binding to rhIL1-α and rhIL1-β was determined by surface plasmon resonance-based measurements with a Biacore 3000 instrument (Biacore AB, Uppsala, Sweden) using HBS-EP (10 mM HEPES, pH 7.4, 150 mM NaCl, 3 mM EDTA, and 0.005% surfactant P20) at 25° C. All chemicals were obtained from Biacore AB (Uppsala, Sweden) or otherwise from a different source as described herein. Approximately, 5000 RU of goat anti-human IgG Fcγ fragment specific polyclonal antibody (Pierce Biotechnology Inc, Rockford, Ill.) diluted in 10 mM sodium acetate (pH 4.5) was directly immobilized across a CM5 research grade biosensor chip using a standard amine coupling kit according to manufacturer's instructions and procedures at […]. Unreacted moieties on the biosensor surface were blocked with ethanolamine. Modified carboxymethyl dextran surface in flowcell 2 and 4 was used as a reaction surface. Unmodified carboxymethyl dextran without goat anti-human IgG in flow cell 1 and 3 was used as the reference surface. […] The association and dissociation rate constants, kon (M-1s-1) and koff (s-1) were determined under a continuous flow rate of […]. […] The equilibrium dissociation constant (M) of the reaction between DVD-Ig and rhIL1α/β was then calculated from the kinetic rate constants by the following formula: KD=koff/kon. […]
binder,measurement,setting,value
"hIL-1a/bDVD6b-Ig (bispecific antibody, human IgG1, kappa) heavy: not shown light: QIVLTQSPAIMSASPGEKVTITCSASSSVSYMHWFQQKPGASPKLWIYSTSNLASGVPARFSGSGSGTSYSLTVSRMEAEDAATYYCQQRSTYPYTFGGGTKLEIKRTVAAPSVFIFPPQIVLTQSPALMSASPGEKVTMTCSASSSVNYMYWYQQKPRSSPKPWIYLTSNLASGVPARFSGSGSGTSYSLTISSMEAEDAATYYCQQWNSNPYTFGGGTKLEMKRRTVAAPSVFIFPPSDEQLKSGTASVVCLLNNFYPREAKVQWKVDNALQSGNSQESVTEQDSKDSTYSLSSTLTLSKADYEKHKVYACEVTHQGLSSPVTKSFNRGEC","Potency (IC50) M, IL-1β, MRC-5 bioassay",[1],750 pM
same,"Potency (IC50) M, IL-1α, MRC-5 bioassay",[2],1000 pM
"hIL-1a/bDVD3a-Ig (bispecific antibody, human IgG1, kappa) heavy: not shown light: DIVMTQSQRFMSTSVGDRVSVTCKASQNVGTNIAWYQQKPGQSPRALIYSASYRYSGVPDRFTGSGSGTDFTLTISNVQSVDLAEYFCQQYTRYPLTFGGGTKLEIKRTVAAPETTVTQSPASLSMAIGEKVTIRCITSTDIDVDMNWYQQKPGEPPKLLISQGNTLRPGVPSRFSSSGSGTDFVFIIENMLSEDVADYYCLQSDNLPLTFGAGTKLELKRRTVAAPSVFIFPPSDEQLKSGTASVVCLLNNFYPREAKVQWKVDNALQSGNSQESVTEQDSKDSTYSLSSTLTLSKADYEKHKVYACEVTHQGLSSPVTKSFNRGEC","Potency (IC50) M, IL-1α, MRC-5 bioassay",[2],750 pM
"DVD1812LL (anti-IL-18/IL-12 DVD-Ig, 18-12-C, long linker) (bispecific antibody, see recheck on the constant domain of the DVD1812 light chains; also called DVD1812HC-LL/DVD1812LC-LL) heavy: EVQLVQSGTEVKKPGESLKISCKGSGYTVTSYWIGWVRQMPGKGLEWMGFIYPGDSETRYSPTFQGQVTISADKSFNTAFLQWSSLKASDTAMYYCARVGSGWYPYTFDIWGQGTMVTVSSASTKGPSVFPLAPQVQLVESGGGVVQPGRSLRLSCAASGFTFSSYGMHWVRQAPGKGLEWVAFIRYDGSNKYYADSVKGRFTISRDNSKNTLYLQMNSLRAEDTAVYYCKTHGSHDNWGQGTMVTVSS light: EIVMTQSPATLSVSPGERATLSCRASESISSNLAWYQQKPGQAPRLFIYTASTRATDIPARFSGSGSGTEFTLTISSLQSEDFAVYYCQQYNNWPSITFGQGTRLEIKRTVAAPSVFIFPPQSVLTQPPSVSGAPGQRVTISCSGSRSNIGSNTVKWYQQLPGTAPKLLIYYNDQRPSGVPDRFSGSKSGTSASLAITGLQAEDEADYYCQSYDRYTHPALLFGTGTKVTVLG",Kd,[3],113 pM
same,Kd,[4],162 pM
same,"Potency (IC50, M), IL-12, PHA blast / PBMC assay",[5],1.18e-10 M
same,"Potency (IC50, M), IL-18, KG-1 bioassay",[6],7.8e-11 M
"hIL-1a/bDVD6a-Ig (bispecific antibody, human IgG1, kappa) heavy: not shown light: QIVLTQSPALMSASPGEKVTMTCSASSSVNYMYWYQQKPRSSPKPWIYLTSNLASGVPARFSGSGSGTSYSLTISSMEAEDAATYYCQQWNSNPYTFGGGTKLEMKRTVAAPSVFIFPPQIVLTQSPAIMSASPGEKVTITCSASSSVSYMHWFQQKPGASPKLWIYSTSNLASGVPARFSGSGSGTSYSLTVSRMEAEDAATYYCQQRSTYPYTFGGGTKLEIKRRTVAAPSVFIFPPSDEQLKSGTASVVCLLNNFYPREAKVQWKVDNALQSGNSQESVTEQDSKDSTYSLSSTLTLSKADYEKHKVYACEVTHQGLSSPVTKSFNRGEC","Potency (IC50) M, IL-1β, MRC-5 bioassay",[1],70000 pM
same,"Potency (IC50) M, IL-1α, MRC-5 bioassay",[2],2300 pM
"hIL-1a/bDVD1-Ig (bispecific antibody, human IgG1, kappa, 13F5.G5 V domains fused directly (no linker) to the N-terminus of 3D12.E3 V domains; human Cγ1/Cκ; also called hIL-1α/βDVD1-Ig) heavy: not shown light: NIVLTQSPASLAVSLGQRATISCRASESVDSYGNSYMHWYQQKPGQPPKLLIYLASNLESGVPARFSGSGSRTDFTLTIDPVEADDAATYYCQQNNEDPFTFGSGTKLEIKRNIQMTQTTSSLSASLGDRVTISCRASQDISNCLNWYQQKPDGTVKLLIYYTSRLHSGVPSRFSGSGSGTDYSLTISNLEQEDIATYFCQQGKTLPYAFGGGTKLEINRRTVAAPSVFIFPPSDEQLKSGTASVVCLLNNFYPREAKVQWKVDNALQSGNSQESVTEQDSKDSTYSLSSTLTLSKADYEKHKVYACEVTHQGLSSPVTKSFNRGEC","neutralizing activity, MRC-5 bioassay, fold less than the chimeric Abs",[7],3 fold
same,fold lower affinity than the chimeric 3D12.E3 Ab,[8],2 to 3 fold
